Here are results for two molecules from article PMC3788737, “Structural Insights into Neutrophilic Migration Revealed by the Crystal Structure of the Chemokine Receptor CXCR2 in Complex with the First PDZ Domain of NHERF1” (PLoS ONE, 2013).

Series [1] concerns the molecule itself. Nature of the series: crystal structure; chimeric PDZ1(11-94)-TSTTL, hanging drop, 100 mM sodium acetate pH 4.6, 2.7 M sodium chloride, 20 °C; 1.16 Å; the tail of one molecule binds the neighbouring PDZ1.
Series [2] deals with T1, NHERF1 PDZ1 domain (residues 11-94) (human, UniProt O14745 11-94).
T1 construct: Na+/H+ exchanger regulatory factor-1 (NHERF1), human, PDZ1 domain, residues 11-94; The PDZ1 part of the chimera m1, written on its own for the pair PDZ1 and CXCR2 peptide of the crystal structure; also called first PDZ domain of NHERF1; source: E. coli BL21 Codon Plus (DE3), purified, as part of the chimeric protein PDZ1-TSTTL; not shown: His6, N-terminal, cleaved; SUMO, N-terminal, cleaved
T1 sequence (looked up): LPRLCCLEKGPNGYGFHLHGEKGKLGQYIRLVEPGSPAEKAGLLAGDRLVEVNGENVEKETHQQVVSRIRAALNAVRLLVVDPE
The series is described as above. Particulars: both partners purified.

B1: chimeric protein of the NHERF1 PDZ1 domain (residues 11-94) fused at its C-terminus to the CXCR2 residues 356-360 (TSTTL) (other, human)
chain: LPRLCCLEKGPNGYGFHLHGEKGKLGQYIRLVEPGSPAEKAGLLAGDRLVEVNGENVEKETHQQVVSRIRAALNAVRLLVVDPETSTTL
notes: Na+/H+ exchanger regulatory factor-1 (NHERF1), human, PDZ1 domain, residues 11-94; C-terminal extension that corresponds to residues 356-360 of human CXCR2; one molecule in the asymmetric unit; also called PDZ1-CXCR2; not shown: His6, N-terminal, cleaved; SUMO, N-terminal, cleaved
As to B1, the binding result in series [1] is recorded as “binds”.

B2: CXCR2 C-terminal peptide TSTTL (residues 356-360) (peptide)
peptide: TSTTL
notes: Interleukin 8 receptor, beta (CXCR2), human, residues 356-360 (C-terminus); The CXCR2 part of the chimera m1 (joined to residue 94 of PDZ1), written on its own for the pair of the crystal structure; also called CXCR2 pentapeptide; source: E. coli BL21 Codon Plus (DE3), purified, as the C-terminal extension of the chimeric protein PDZ1-TSTTL
Consider B2, for which, in series [2], the binding result is listed as “binds”.
